From publication PMC10122671, “IS21 family transposase cleaved donor complex traps two right-handed superhelical crossings”

Tests used:
[1] = target: Geobacillus stearothermophilus IstA (IS5376 transposase, IS21 family) (Geobacillus stearothermophilus); assay: cryo-EM structure; IstA mixed 1:1.5 with the pre-cleaved right TIR DNA (5-nt 5' overhang), complex isolated by gel filtration; 50 mM HEPES pH 7.5, 150 mM NaCl, 5 mM MgCl2, 1 mM DTT, 0.005% Tween-20; 3.4 Å, C2 symmetry
IstA-MBP [2] = target: T1, IstA-MBP (Geobacillus stearothermophilus, UniProt Q45618 1-400); assay: fluorescence anisotropy; apparent Kd; Hill coefficient 3.6; 5 mM Mg2+; Fluorescence anisotropy: 50 mM HEPES pH 7.5, 150 mM NaCl, 5 mM MgCl2, 10% glycerol, 1 mM beta-mercaptoethanol, 0.1 mg/ml BSA, 5 nM DNA, 37 °C, 5 min; settings: protein: recombinant; tags: C-terminal TEV-cleavable MBP-His6; label: 5'-FAM on strand 1; blunt
T1 sequence: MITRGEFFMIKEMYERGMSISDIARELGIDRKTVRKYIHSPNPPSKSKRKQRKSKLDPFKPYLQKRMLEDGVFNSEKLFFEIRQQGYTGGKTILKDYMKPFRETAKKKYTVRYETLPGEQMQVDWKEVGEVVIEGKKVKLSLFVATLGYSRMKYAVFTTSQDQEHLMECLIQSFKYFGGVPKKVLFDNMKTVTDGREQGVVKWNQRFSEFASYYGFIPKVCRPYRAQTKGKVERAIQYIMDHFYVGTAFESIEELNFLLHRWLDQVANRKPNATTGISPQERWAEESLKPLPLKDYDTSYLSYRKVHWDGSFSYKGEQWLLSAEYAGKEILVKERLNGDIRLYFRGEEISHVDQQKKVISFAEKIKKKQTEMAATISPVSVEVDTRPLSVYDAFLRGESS

IstA = target: T2, IstA (Geobacillus stearothermophilus, UniProt Q45618 1-400); assay: cryo-EM structure (3.4 A); 5 mM Mg2+; IstA tetramer with two DNA ends; Fluorescence anisotropy: 50 mM HEPES pH 7.5, 150 mM NaCl, 5 mM MgCl2, 10% glycerol, 1 mM beta-mercaptoethanol, 0.1 mg/ml BSA, 5 nM DNA, 37 °C, 5 min; settings: protein: recombinant; tags: MBP-His6 tag removed by TEV; 5' overhang 5 nt on strand 2; two duplex copies per tetramer
T2 sequence: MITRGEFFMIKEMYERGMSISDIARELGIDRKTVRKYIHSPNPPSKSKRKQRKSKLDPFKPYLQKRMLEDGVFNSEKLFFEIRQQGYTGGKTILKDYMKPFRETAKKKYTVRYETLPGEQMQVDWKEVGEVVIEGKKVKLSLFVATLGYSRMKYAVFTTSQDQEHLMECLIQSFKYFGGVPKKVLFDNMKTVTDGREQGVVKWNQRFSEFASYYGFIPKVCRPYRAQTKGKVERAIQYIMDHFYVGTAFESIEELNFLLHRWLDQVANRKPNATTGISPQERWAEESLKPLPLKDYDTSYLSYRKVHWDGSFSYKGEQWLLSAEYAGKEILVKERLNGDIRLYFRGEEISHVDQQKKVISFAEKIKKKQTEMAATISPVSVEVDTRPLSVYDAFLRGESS

IstA-MBP [3] = target: T1, IstA-MBP; assay: fluorescence anisotropy; apparent Kd; Hill coefficient 1.2; 5 mM Mg2+; Fluorescence anisotropy: 50 mM HEPES pH 7.5, 150 mM NaCl, 5 mM MgCl2, 10% glycerol, 1 mM beta-mercaptoethanol, 0.1 mg/ml BSA, 5 nM DNA, 37 °C, 5 min; settings: protein: recombinant; tags: C-terminal TEV-cleavable MBP-His6; label: 5'-FAM on strand 1; blunt
IstA-MBP [4] = target: T1, IstA-MBP; assay: fluorescence anisotropy; apparent Kd; Hill coefficient 2.2; 5 mM Mg2+; Fluorescence anisotropy: 50 mM HEPES pH 7.5, 150 mM NaCl, 5 mM MgCl2, 10% glycerol, 1 mM beta-mercaptoethanol, 0.1 mg/ml BSA, 5 nM DNA, 37 °C, 5 min; settings: protein: recombinant; tags: C-terminal TEV-cleavable MBP-His6; label: 5'-FAM on strand 1; blunt
IstA-MBP [5] = target: T1, IstA-MBP; assay: fluorescence anisotropy; apparent Kd; Hill coefficient 1.5; 5 mM Mg2+; Fluorescence anisotropy: 50 mM HEPES pH 7.5, 150 mM NaCl, 5 mM MgCl2, 10% glycerol, 1 mM beta-mercaptoethanol, 0.1 mg/ml BSA, 5 nM DNA, 37 °C, 5 min; settings: protein: recombinant; tags: C-terminal TEV-cleavable MBP-His6; label: 5'-FAM on strand 1; blunt

How did the stoichiometry N [1] turn out when “Geobacillus stearothermophilus IstA (IS5376 transposase, IS21 family) (enzyme)” was run?
The stoichiometry N was 4.

B1: R1-R2 (pre-cleaved full right TIR) (dsDNA)
DNA 1: CCTTCTGGGGAATTTTAAACCGGCGATTTTGGGGAAAAAATAATCGGCCTTGACA
DNA 2: TGTCAAGGCCGATTATTTTTTCCCCAAAATCGCCGGTTTAAAATTCCCCAGAAGG
How did the Kd (IstA-MBP [2]) turn out when B1 was run?
Its Kd is 125 nM.

B2: Pre-cleaved right TIR with 5 nt 5' overhang (dsDNA)
DNA 1: CCTTCTGGGGAATTTTAAACCGGCGATTTTGGGGAAAAAATAATCGGCCTTGACA
DNA 2: ATTCATGTCAAGGCCGATTATTTTTTCCCCAAAATCGCCGGTTTAAAATTCCCCAGAAGG
Does B2 bind (IstA)?
Result: binds

B3: R1 (27 bp right TIR) (dsDNA)
DNA 1: TTGGGGAAAAAATAATCGGCCTTGACA
DNA 2: TGTCAAGGCCGATTATTTTTTCCCCAA
Which Kd (IstA-MBP [3]) does the source give for B3 here?
Its Kd is 176 nM.

B4: Rd27 (dsDNA)
DNA 1: TGCTAACACGTCGGATCATCGCAAGCA
DNA 2: TGCTTGCGATGATCCGACGTGTTAGCA
For B4, which Kd (IstA-MBP [4]) is on record?
The Kd was 121 nM.

B5: Rd60 (dsDNA)
DNA 1: TGCTTGCGATGATCCGACGTGTTAGCCACGCTGACTAGTTATGCCATGCCTCCCTTCAGG
DNA 2: CCTGAAGGGAGGCATGGCATAACTAGTCAGCGTGGCTAACACGTCGGATCATCGCAAGCA
With B5 as the molecule, how does the Kd (IstA-MBP [5]) read?
Its Kd is 191 nM.
